Experiment: western blot of conditioned medium, 24 h
Conditions: glycan lost; control: wild type

Substance	expression_or_secretion
antithrombin: S137T	no change
antithrombin: S137A	no change
